Article PMC4238058, “Phase transitions of multivalent proteins can promote clustering of membrane receptors” (eLife, 2014)

Tests used:
[1] = target: T1, Nck (human, WT, residues 1-377) (human); test: ITC; Nck (150 uM) in the syringe titrated into 5 uM p-Nephrin (3pY) or p-TIR (3pY); 25 mM Hepes pH 7.5, 150 mM NaCl, 1 mM MgCl2, 2 mM TCEP; three-site binding model with a single affinity for Nck (NITPIC, Sedphat); the constant is that of one pTyr site; conditions: both partners purified
T1 construct: two extra N-terminal residues printed before Met1; Nck, human, WT, residues 1-377; source: E. coli BL21(DE3)T1R, purified (glutathione sepharose, TEV on beads, Source 15Q, Source 15S, SD75)

[2] = target: T2, Nck (cysteine-modified; human, residues 1-377, C139S, C232A, C266S, C340S), fluorophore-labelled (human, C139S (stands in the printed letters) | C232A (stands in the printed letters) | …, maleimide Alexa568 (imaging of association and three color imaging) or Alexa488 (FRAP) on cysteine); test: fluorescence (TIRF) microscopy of recruitment to a supported lipid bilayer; His8-p-Nephrin Alexa488 attached to a DOPC bilayer with 1% Ni2+-NTA DOGS; 1 uM Nck Alexa568 alone in solution; 25 mM Hepes pH 7.5, 150 mM NaCl, 1 mM MgCl2, 1 mM BME, 0.1% BSA; conditions: both partners purified
T2 construct: extra N-terminal residues printed before Met1, with the only cysteine left in the chain; Nck, human, residues 1-377 with C139S, C232A, C266S, C340S; The methods tell the expression and purification for GST-Nck; that the cysteine-modified form was made the same way is surmised; also called Nck Alexa568; Nck Alexa488; source: E. coli BL21(DE3)T1R, purified; labelled with a maleimide-conjugated …

Binder	Kd [1]	binding result [2]
triply phosphorylated His8-tagged Nephrin cytoplasmic tail (amino acids 1174-1223, Y1183F, Y1210F; pTyr1176, pTyr1193, pTyr1217) (domain or fragment, human, phosphotyrosine at Tyr1176, Tyr1193 and Tyr1217; maleimide Alexa488 on the single cysteine of the linker (bilayer experiments), N-terminal stretch as printed: holds the His8 tag named under tags and the (Gly-Gly-Ser)5 linker with the cysteine that is labelled; Nephrin, human, cytoplasmic tail residues 1174-1223 with Y1183F and Y1210F; also called p-Nephrin; Nephrin3Y (before phosphorylation); source: E. coli BL21(DE3)T1R, purified (Ni-NTA, Source 15Q, SD200); phosphorylated with Lck kinase and purified again (Source 15Q, …)) GGSLEHHHHHHHHGGSCGGSGGSGGSGGSHLYDEVERTFPPSGAWGPLYDEVQMGPWDLHWPEDTFQDPRGIYDQVAGD	370 nM	binds
triply phosphorylated TIR3Y (His8-tagged human Nephrin tail with its pTyr sites replaced by the pTyr motif of EPEC Tir) (domain or fragment, phosphotyrosine in each of the three Tir motifs (triply phosphorylated); fluorescent in the bilayer experiments, N-terminal stretch as printed: holds the His8 tag named under tags, the Gly-Gly-Ser linker with the cysteine, and HM before the first Tir motif; Nephrin, human, stretch between the first and second pTyr sites; Nephrin, human, stretch between the second and third pTyr sites, with Phe at 1210 as in Nephrin3Y; also called p-TIR; p-TIR (3pY); source: E. coli BL21(DE3)T1R, purified (told for …)) GGSLEHHHHHHHHGGSCGGSGGSGGSGGSHMHIYDEVAADPPPSGAWGHIYDEVAADPWDLHWPEDTFQDPRHIYDEVAADP	40 nM	
